Assay [1] deals with T1, cynomolgus LAG3 on cells (cynomolgus).
T1 construct: whole, on cells; also called cyno-LAG-3; cynoLAG3
The assay can be described thus: flow cytometry on activated cynomolgus PBMC, 10 µg/ml (only 2nd Ab (hu): 7.62). How it is done:
Thus, cynomolgus peripheral blood mononuclear cells (PBMC) were prepared from fresh cynomolgus blood and were then activated by CD3/CD28 pre-treatment (1 μg/ml) for 2-3 days. […] After staining, cells were washed two times with PBS/2% FCS and analyzed on a FACS Fortessa (BD).
Background: In flow cytometry, cells or beads pass a laser one at a time.

Assay [2] addresses PD1 on PD1+LAG3+ human U2OS cells (UniProt Q15116 25-288). The assay can be described thus: cellular PD1/LAG3 dimerization assay, 7500 PD1+LAG3+ U2OS cells a well, 20 h at 37 °C, chemoluminescence; the signal needs PD1 and LAG3 bound at once. How it is done: Next, assay plates were equilibrated to room temperature and a substrate/buffer mix (PathHunterFlash detection reagent, Discoverx) was added and again incubated for 4h. For measuring chemoluminescence induced upon simultaneous binding and dimerization a SpectraMax L plate reader (Molecular Devices) was used.

The target of assay [3] is full-length human PD1 on cells (human, UniProt Q15116 25-288). The experiment in a line: cell-based or functional assay.
Assay [4] addresses T2, LAG3 on cells (recombinant CHO cells expressing Lag3) (human, UniProt P18627 29-525).
T2 sequence: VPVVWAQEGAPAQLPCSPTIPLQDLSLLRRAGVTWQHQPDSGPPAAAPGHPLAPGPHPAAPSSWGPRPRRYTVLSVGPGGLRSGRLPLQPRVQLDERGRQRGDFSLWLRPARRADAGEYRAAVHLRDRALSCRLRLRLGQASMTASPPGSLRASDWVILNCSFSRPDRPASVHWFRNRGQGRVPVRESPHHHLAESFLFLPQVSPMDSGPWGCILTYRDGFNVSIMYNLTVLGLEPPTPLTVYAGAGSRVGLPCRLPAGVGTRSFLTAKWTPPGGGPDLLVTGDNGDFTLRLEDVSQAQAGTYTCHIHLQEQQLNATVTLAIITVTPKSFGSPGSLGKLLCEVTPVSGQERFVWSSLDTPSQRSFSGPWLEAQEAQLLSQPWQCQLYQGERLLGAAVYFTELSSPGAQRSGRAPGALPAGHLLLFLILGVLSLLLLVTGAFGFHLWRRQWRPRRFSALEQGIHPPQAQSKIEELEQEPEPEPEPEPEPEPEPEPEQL
The experiment in a line: cell-based or functional assay.

Results on 2 molecules are retold here after patent US20220387586A1 (Hoffmann-La Roche, published 2022).

For orientation: EC50 (read off the curve) means the concentration that produces a half-maximal response.

Chain of PD1 on PD1+LAG3+ human U2OS cells (Q15116 25-288): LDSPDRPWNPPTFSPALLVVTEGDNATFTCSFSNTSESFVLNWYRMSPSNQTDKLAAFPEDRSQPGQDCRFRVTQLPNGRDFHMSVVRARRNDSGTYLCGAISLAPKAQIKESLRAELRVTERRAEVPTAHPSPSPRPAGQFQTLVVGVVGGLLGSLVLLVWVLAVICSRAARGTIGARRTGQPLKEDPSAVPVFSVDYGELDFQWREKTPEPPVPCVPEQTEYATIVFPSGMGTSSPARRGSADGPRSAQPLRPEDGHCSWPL
Chain of full-length human PD1 on cells (Q15116 25-288 limits assumed): as the sequence (Q15116 25-288) above

B1: Reference LAG3 antibody BMS-986016 (antibody, V domains shown)
VH: QVQLQQWGAGLLKPSETLSLTCAVYGGSFSDYYWNWIRQPPGKGLEWIGEINHRGSTNSNPSLKSRVTLSLDTSKNQFSLKLRSVTAADTAVYYCAFGYSDYEYNWFDPWGQGTLVTVSS
VL: EIVLTQSPATLSLSPGERATLSCRASQSISSYLAWYQQKPGQAPRLLIYDASNRATGIPARFSGSGSGTDFTLTISSLEPEDFAVYYCQQRSNWPLTFGQGTNLEIK
notes: also called aLAG3(BMS986016)
In the case of B1, in assay [1], the “% positive cyno cells (PBLs) after CD3/CD28 activation” value turned out to be 18.6%.

B2: PD1/LAG3 0750 (bispecific antibody, human IgG1, kappa, L234A L235A)
heavy 1: not shown
heavy 2: EVQLLESGGGLVQPGGSLRLSCAASGFIFDDYTMNWVRQAPGKGLEWVAVISWDGGGTYYTDSVKGRFTISRDDFKNTLYLQMNSLRAEDTAVYYCAKGLTDTTLYGSDYWGQGTLVTVSSASTKGPSVFPLAPSSKSTSGGTAALGCLVEDYFPEPVTVSWNSGALTSGVHTFPAVLQSSGLYSLSSVVTVPSSSLGTQTYICNVNHKPSNTKVDEKVEPKSCDKTHTCPPCPAPEAAGGPSVFLFPPKPKDTLMISRTPEVTCVVVDVSHEDPEVKFNWYVDGVEVHNAKTKPREEQYNSTYRVVSVLTVLHQDWLNGKEYKCKVSNKALGAPIEKTISKAKGQPREPQVCTLPPSRDELTKNQVSLSCAVKGFYPSDIAVEWESNGQPENNYKTTPPVLDSDGSFFLVSKLTVDKSRWQQGNVFSCSVMHEALHNHYTQKSLSLSPGKGGGGSGGGGSEVQLLESGGGLVQPGGSLRLSCAASGFIFDDYTMNWVRQAPGKGLEWVAVISWDGGGTYYTDSVKGRFTISRDDFKNTLYLQMNSLRAEDTAVYYCAKGLTDTTLYGSDYWGQGTLVTVSSASTKGPSVFPLAPSSKSTSGGTAALGCLVEDYFPEPVTVSWNSGALTSGVHTFPAVLQSSGLYSLSSVVTVPSSSLGTQTYICNVNHKPSNTKVDEKVEPKSC
light 1: EVQLLESGGGLVQPGGSLRLSCAASGFSFSSYTMSWVRQAPGKGLEWVATISGGGRDIYYPDSVKGRFTISRDNSKNTLYLQMNSLRAEDTAVYYCVLLTGRVYFALDSWGQGTLVTVSSASVAAPSVFIFPPSDEQLKSGTASVVCLLNNFYPREAKVQWKVDNALQSGNSQESVTEQDSKDSTYSLSSTLTLSKADYEKHKVYACEVTHQGLSSPVTKSFNRGEC
light 2: not shown
notes: 2+1 trans format: one LAG3 Fab N-terminal, one fused to the C-terminus of the Fc hole chain; also called 1 + 2 trans
For B2, the “EC50 (read off the curve)” value in assay [2] was ~60 pM. Further, the “EC50 [nM], PD-1 & LAG-3 combo reporter assay (NFAT luciferase)” value in assay [3] and in assay [4] was 0.6 nM each time.
